The target in experiment [1] is T1, biotinylated native human ApoC3 (human, UniProt P02656 21-99, biotinylated (site not stated)).
T1 construct: also called biotinylated human ApoC3
Put plainly: SPR, IgG1 over biotinylated ApoC3 on SA chip, pH 5.5. In outline:
(§1)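 Biotinylated native human ApoC3 was captured on a streptavidin chip (~500 RU), and IgG1 at 1-50 nM was injected in HBS-EP at pH 7.4, or at pH 5.5 with 10 mM citrate added. Dissociation was followed for 5 min. Double-referenced sensorgrams were fit to a 1:1 Langmuir model, and fits were considered not applicable when kd was below 1×10⁻⁶ 1/s.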

Experiment [2] deals with T1, biotinylated native human ApoC3. Put plainly: SPR, IgG1 over biotinylated ApoC3 on SA chip. In short, it runs like this:
as §1
Background: In SPR one partner is held on a chip, and binding of the other changes the refractive index at the surface.

Experiment [3] has the same target. Put plainly: SPR, IgG1 over biotinylated ApoC3 on SA chip, pH 7.4. In outline: as §1
In experiment [4] the target is T2, native human ApoC3 (human, UniProt P02656 21-99).
T2 construct: also called nhuApoC3; native huApoC3
Put plainly: SPR, ApoC3 over captured IgG1, pH 7.4; pH 7.4; ApoC3 600-50 nM over immobilized antibody. As for the experimental part:
An inverted SPR assay was designed in which a test antibody was captured on an SPR chip, human ApoC3 protein was injected, and binding of ApoC3 to the antibody was measured. […] The immobilization was performed in accordance with the method provided by Biacore/GE using the NHS/EDC kit (Biacore AB, Cat.nr. BR-1000-50): after activation of the chip, a solution of 30 μg/ml of anti-human Fcγ antibody in 10 mM acetate buffer with pH of 5.0 was prepared and injected until the surface density reached approximately 10000 RU. The analytical cycle comprised the following steps:
The resulting sensorgrams were analyzed using the BIAevaluation 4.1 software using Langmuir 1:1 binding model to derive binding kinetics. Data was zero adjusted, the reference cell sensorgrams were subtracted and the no analyte blank assay was used for double referencing the sensorgrams corresponding to the analyte injections. The dissociation and association phase sensorgrams were fitted separately for the 4 different concentration curves. Sensorgrams were excluded from the fitting if maximum RU values reached were below the detection limit of the equipment (<5 RU), Biacore 3000 (Biacore AB).

Experiment [5] has as its target T1, biotinylated native human ApoC3. Briefly: SPR, scFv-Fc over biotinylated ApoC3 on SA chip, pH 7.4.
Experiment [6] shares this target. Put plainly: SPR, scFv-Fc over biotinylated ApoC3 on SA chip.
Experiment [7] has the same target. Put plainly: SPR, scFv-Fc over biotinylated ApoC3 on SA chip, pH 5.5.
The target in experiment [8] is T2, native human ApoC3. Briefly: SPR, IgG1 over ApoC3 on CM5 chip, pH 5.5. As for the experimental part:
(§2) Based on the results in Example 1, test scFv-Fc antibodies were generated as human IgG₁ antibodies. An SPR-based assay was employed, in which human ApoC3 protein was immobilized on a CM5 chip, and the binding kinetics of test antibodies to the coated chip were measured at both pH 7.4 and pH 5.5. Briefly, a solution of 50 μg/ml of native human ApoC3 in 10 mM acetate buffer at pH 4.5 was prepared and injected until the surface density reached approximately 500 RU. 60 μl of each test antibody was diluted in HBS-EP buffer (GE, cat. nr. BR-1008-26; 0.010 M HEPES, 0.150M NaCl, 3 mM EDTA, 0.05% (v/v) surfactant P20, pH 7.4), and was injected at a concentration as described in Table 9. The test antibodies were passed through the flow cells at a flow rate of 30 μl/min, followed by an off-rate wash at pH 7.4 or pH 5.5 for 5 min. The resulting sensorgrams were analyzed using the BIAevaluation 4.1 software applying the Langmuir 1:1 binding model to derive binding kinetics. Data was zero adjusted and the reference cell sensorgrams were subtracted.

Experiment [9] addresses T2, native human ApoC3. Put plainly: SPR, IgG1 over ApoC3 on CM5 chip, pH 7.4. As for the experimental part:
as §2

Experiment [10] deals with T1, biotinylated native human ApoC3. Briefly: SPR, IgG1 over biotinylated ApoC3 on SA chip, pH 5.5; pH 5.5.
Experiment [11] shares this target. Briefly: SPR, IgG1 over biotinylated ApoC3 on SA chip, pH 7.4; pH 7.4; native ApoC3 on CM5 chip.
For experiment [12], the target named is T2, native human ApoC3. Briefly: SPR, IgG1 over ApoC3 on CM5 chip, pH 7.4; pH 7.4; IgG1 over native ApoC3 on CM5 chip. The procedure: as §2

What is called koff is a measure of how fast the partners let go of each other. Low values mean a long-lived complex, high ones a short-lived complex. Broadly, the kon is a measure of how fast the partners come together. Low values mean slower complex formation, high ones faster complex formation. In general, Kd refers to the equilibrium constant for the complex coming apart.

T1 sequence (P02656 21-99): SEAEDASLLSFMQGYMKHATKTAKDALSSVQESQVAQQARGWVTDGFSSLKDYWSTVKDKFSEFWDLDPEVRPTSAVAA
T2 sequence (P02656 21-99): as above

B1: mAb14 (antibody, IgG1, V domains shown)
VH: QLLESGGGLVQPGGSLRLSCAASGFTFGTYSMRWVRQVPGKGLEWVSSIHTEGGGTAYRDSVKGRFTISRDNSKNTLYLQMNSLRAEDTAVYYCVIAGYSDWGQGTLVTVSS
VL: DIVMTQSPLSLPVTPGEPASISCKTSQGLVHSDGKTYFYWYLQKPGQSPQLLIYQVSNRASGVPDRFSGSGSGTDFTLKISRVEAEDVGVYYCAHGTYYPHTFGQGTRLEIK
notes: Produced as full length IgG1 (kappa) in ExpiCHO-S cells; CDR graft into the closest human germline frameworks; also called humanized anti-ApoC3 antibody mAb14; variant 14
As to B1, the Ka came to 4.7e+07 M⁻¹ in [1], 3.38e+08 M⁻¹ in [3] and 567000 M⁻¹ with native human ApoC3 [4]. For the same molecule, the koff stood at 0.00788 s⁻¹ in experiment [1], 0.000427 s⁻¹ in experiment [3] and 0.0458 s⁻¹ with native human ApoC3 [4]. In addition, the kon in experiment [1] amounted to 370000 M⁻¹ s⁻¹; in [3], 144000 M⁻¹ s⁻¹; with native human ApoC3 [4] it was 26000 M⁻¹ s⁻¹. In experiment [2], the “KD pH5.5/KD pH7.4” value is 7.2.

B2: 5E5WT scFv-Fc (scFv, part only; not given: Linker, domain order, Fc, V domains shown, not shown: another chain or arm of the molecule; a dimerising Fc or GST; small tags and cut ends)
VH: QLQLVESGGGLVQPGGSLRLSCAASGFTFGTYSMRWVRQVPRKALEWVSSISTDGGGTAYRDSVKGRFTISRDNAKNTLYLQMNNLKPEDTAIYYCVIAGYSDWGQGTQVTVSS
VL: ATMLTQSPGSLSVVPGESASISCKTSQGLVHSDGKTYFYWFLQKPGQSPQQLIYQVSNRASGVPDRFTGSGSGTDFTLKISGVKAEDAGVYYCAQGTYYPHTFGSGTRLEIK
In experiment [5], B2 displayed a Kd of 0.02 nM, a dissociation rate constant (koff) of 1.75e-05 s⁻¹ and a kon of 823000 M⁻¹ s⁻¹. In addition, the KD pH 5.5/KD pH 7.4 in [6] is 3. Further, in experiment [7], the Kd is 0.06 nM, the off-rate constant (koff) came out at 2.53e-05 s⁻¹ and the kon is 393000 M⁻¹ s⁻¹.

B3: 5E5VH12_VLWT scFv-Fc (scFv, part only; not given: Linker, domain order, Fc, V domains shown, not shown: another chain or arm of the molecule; a dimerising Fc or GST; small tags and cut ends)
VH: QLQLVESGGGLVQPGGSLRLSCAASGFTFGTYSMRWVRQVPRKALEWVSSISTDGGGTAYRDSVKGRFTISRDNAKNTLYLQMNNLKPEDTAIYYCVIHGYSDWGQGTQVTVSS
VL: ATMLTQSPGSLSVVPGESASISCKTSQGLVHSDGKTYFYWFLQKPGQSPQQLIYQVSNRASGVPDRFTGSGSGTDFTLKISGVKAEDAGVYYCAQGTYYPHTFGSGTRLEIK
Consider B3, for which, in experiment [5], the Kd stood at 0.51 nM, the koff is 0.000157 s⁻¹ and the on-rate constant (kon) is 308000 M⁻¹ s⁻¹. In experiment [6], this molecule yielded a KD pH 5.5/KD pH 7.4 of 31.4. In experiment [7], this molecule gave a dissociation constant Kd of 16 nM, a koff of 0.00206 s⁻¹ and a kon of 129000 M⁻¹ s⁻¹.

B4: 5E5VH5_VLWT scFv-Fc (scFv, part only; not given: Linker, domain order, Fc, V domains shown, not shown: another chain or arm of the molecule; a dimerising Fc or GST; small tags and cut ends)
VH: QLQLVESGGGLVQPGGSLRLSCAASGFTFGTYSMRWVRQVPRKALEWVSSIHTDGGGTAYRDSVKGRFTISRDNAKNTLYLQMNNLKPEDTAIYYCVIAGYSDWGQGTQVTVSS
VL: ATMLTQSPGSLSVVPGESASISCKTSQGLVHSDGKTYFYWFLQKPGQSPQQLIYQVSNRASGVPDRFTGSGSGTDFTLKISGVKAEDAGVYYCAQGTYYPHTFGSGTRLEIK
In experiment [5], B4 registered an equilibrium dissociation constant (Kd) of 0.59 nM, an off-rate constant (koff) of 0.000105 s⁻¹ and a kon of 178000 M⁻¹ s⁻¹. In experiment [6], this molecule gave a KD pH 5.5/KD pH 7.4 of 18.5. In experiment [7], this molecule gave a koff of 0.0016 s⁻¹ and an association rate constant (kon) of 147000 M⁻¹ s⁻¹.

B5: 5E5VHWT_VL8 scFv-Fc (scFv, part only; not given: Linker, domain order, Fc, V domains shown, not shown: another chain or arm of the molecule; a dimerising Fc or GST; small tags and cut ends)
VH: QLQLVESGGGLVQPGGSLRLSCAASGFTFGTYSMRWVRQVPRKALEWVSSISTDGGGTAYRDSVKGRFTISRDNAKNTLYLQMNNLKPEDTAIYYCVIAGYSDWGQGTQVTVSS
VL: ATMLTQSPGSLSVVPGESASISCKTSQGLVHSDGKTYFYWFLQKPGQSPQQLIYQVSNRASGVPDRFTGSGSGTDFTLKISGVKAEDAGVYYCAHGTYYPHTFGSGTRLEIK
With B5, in experiment [5], the Kd is 0.58 nM, the koff was 0.000221 s⁻¹ and the kon was 381000 M⁻¹ s⁻¹. In addition, the KD pH 5.5/KD pH 7.4 in [6] amounted to 7.4. In experiment [7], this molecule registered a koff of 0.00116 s⁻¹ and an association rate constant (kon) of 269000 M⁻¹ s⁻¹.

B6: 5E5WT human IgG1 (antibody, V domains shown)
VH: QLQLVESGGGLVQPGGSLRLSCAASGFTFGTYSMRWVRQVPRKALEWVSSISTDGGGTAYRDSVKGRFTISRDNAKNTLYLQMNNLKPEDTAIYYCVIAGYSDWGQGTQVTVSS
VL: ATMLTQSPGSLSVVPGESASISCKTSQGLVHSDGKTYFYWFLQKPGQSPQQLIYQVSNRASGVPDRFTGSGSGTDFTLKISGVKAEDAGVYYCAQGTYYPHTFGSGTRLEIK
Turning to B6, the koff is 1.7e-05 s⁻¹ with native human ApoC3 [8], 1.7e-05 s⁻¹ in experiment [1], 1.79e-05 s⁻¹ with native human ApoC3 [9] and 1.79e-05 s⁻¹ in experiment [3]. The kon with native human ApoC3 [8] came to 340000 M⁻¹ s⁻¹; in [1], 340000 M⁻¹ s⁻¹; with native human ApoC3 [9], 350000 M⁻¹ s⁻¹; in experiment [11] it was 350000 M⁻¹ s⁻¹. Further, the Kd in experiment [1] and in experiment [3] was 0.05 nM throughout. The “KD pH5.5/KD pH7.4” value in experiment [2] was determined as 0.97. In addition, the Ka in experiment [3] was determined as 1.95e+10 M⁻¹; in experiment [10], 2.01e+10 M⁻¹.

B7: 5E5VH5VH12_VL8 human IgG1 (antibody, V domains shown)
VH: QLQLVESGGGLVQPGGSLRLSCAASGFTFGTYSMRWVRQVPRKALEWVSSIHTDGGGTAYRDSVKGRFTISRDNAKNTLYLQMNNLKPEDTAIYYCVIHGYSDWGQGTQVTVSS
VL: ATMLTQSPGSLSVVPGESASISCKTSQGLVHSDGKTYFYWFLQKPGQSPQQLIYQVSNRASGVPDRFTGSGSGTDFTLKISGVKAEDAGVYYCAHGTYYPHTFGSGTRLEIK
Take B7: in the experiment with native human ApoC3 [12], the koff stood at 0.0028 s⁻¹ and the on-rate constant (kon) was 125000 M⁻¹ s⁻¹.

The record behind these values is US20200239555A1 (STATEN BIOTECHNOLOGY B V, published 2020).
